Holding throughout (experiment): co-IP
The target of assay [1] is CD7BB1 (human | canine) (UniProt P09564).
Assay [2] has the same target. The source holds these as a separate data set.
The target in another assay is GP2CAD1 (rat | canine).

UniProt P09564, sequence (P09564 whole entry): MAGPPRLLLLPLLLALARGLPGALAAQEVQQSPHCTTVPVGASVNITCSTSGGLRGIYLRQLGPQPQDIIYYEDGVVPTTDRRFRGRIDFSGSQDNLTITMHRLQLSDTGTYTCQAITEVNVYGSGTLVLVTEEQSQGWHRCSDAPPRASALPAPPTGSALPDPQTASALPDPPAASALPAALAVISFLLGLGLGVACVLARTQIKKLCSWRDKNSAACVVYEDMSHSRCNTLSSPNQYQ

α-catenin (natural protein): the stoichiometry N (α-catenin per 5 CD7BB1) in the assay with CD7BB1 (human | canine) [1] stood at 0.8.

B1: β-catenin (natural protein)
chain: MATQADLMELDMAMEPDRKAAVSHWQQQSYLDSGIHSGATTTAPSLSGKGNPEEEDVDTTQVLYEWEQGFSQSFTQEQVADIDGQYAMTRAQRVRAAMFPETLDEGMQIPSTQFDAAHPTNVQRLAEPSQMLKHAVVNLINYQDDAELATRAIPELTKLLNDEDQVVVNKAAVMVHQLSKKEASRHAIMRSPQMVSAIVRTMQNTNDVETARCTAGTLHNLSHHREGLLAIFKSGGIPALVKMLGSPVDSVLFYAITTLHNLLLHQEGAKMAVRLAGGLQKMVALLNKTNVKFLAITTDCLQILAYGNQESKLIILASGGPQALVNIMRTYTYEKLLWTTSRVLKVLSVCSSNKPAIVEAGGMQALGLHLTDPSQRLVQNCLWTLRNLSDAATKQEGMEGLLGTLVQLLGSDDINVVTCAAGILSNLTCNNYKNKMMVCQVGGIEALVRTVLRAGDREDITEPAICALRHLTSRHQEAEMAQNAVRLHYGLPVVVKLLHPPSHWPLIKATVGLIRNLALCPANHAPLREQGAIPRLVQLLVRAHQDTQRRTSMGGTQQQFVEGVRMEEIVEGCTGALHILARDVHNRIVIRGLNTIPLFVQLLYSPIENIQRVAAGVLCELAQDKEAAEAIEAEGATAPLTELLHSRNEGVATYAAAVLFRMSEDKPQDYKKRLSVELTSSLFRTEPMAWNETADLGLDIGAQGEPLGYRQDDPSYRSFHSGGYGQDALGMDPMMEHEMGGHHPGADYPVDGLPDLGHAQDLMDGLPPGDSNQLAWFDTDL
The molecule B1 gave a stoichiometry N (β-catenin per 5 CD7BB1) with CD7BB1 (human | canine) [2] of 1. In the assay with GP2CAD1 (rat | canine), this molecule displayed a stoichiometry N (β-catenin per GP2CAD1) of 1.

Source of the values: paper PMC2132940.
